Measured values from article PMC7611338 (Current biology : CB, 2021).

Target: the molecule itself
Test: fluorescence correlation spectroscopy

B1: dE-cad^WT::GFP (Drosophila E-cadherin, wild type, GFP-tagged) (natural protein)
chain: PGQSYAIIVRAYNVVPDPPQDAQIEVRIRVVESSIKPPSFVNPIDTPIYLKENLKNFTHPIATLRAVSNMPDKPEVIFELNTGRTEQTNSKNTFVFNQIGNEVTISLGKTLDYEAITDYTLTMIVRNTHELGTEHQIKIQVEDVNDNIPYYTEVKSGTILENEPPGTPVMQVRAFDMDGTSANNIVSFELADNREYFTIDPNTGNITALTTFDREERDFYNVKVIASDNSPSSLFDNGEPNRGHQVFRISIGDKNDHKPHFQQDKYLAERLLEDANTNTEVIEVKAEDEDNASQILYSIESGNVGDAFKIGLKTGKITVNQKLDYETITEYELKVRAFDGIYDDYTTVVIKIEDVNDNPPVFKQDYSVTILEETTYDDCILTVEAYDPDIKDRNADQHIVYSIHQNDGNRWTIDNSGCLRLVKTLDRDPPNGHKNWQVLIKANDEDGVGTTVSTVKEVTVTLKDINDNAPFLINEMPVYWQENRNPGHVVQLQANDYDDTPGAGNFTFGIDSEATPDIKTKFSMDGDYLHANVQFDREAQKEYFIPIRISDSGVPRQSAVSILHLVIGDVNDNAMSEGSSRIFIYNYKGEAPETDIGRVFVDDLDDWDLEDKYFEWKDLPHDQFRLNPSTGMITMLVHTAEGEYDLSFVVTEDSMFVPRHSVDAYVTVVVRELPEEAVDKSGSIRFINVTKEEFISVPRDFQSPDALSLKDRLQLSLAKLFNTSVSNVDVFTVLQNENHTLDVRFSAHGSPYYAPEKLNGIVAQNQQRLENELDLQMLMVNIDECLIEKFKCEESCTNELHKSSVPYMIYSNTTSFVGVNAFVQAQCVCEAPLMRRCLNGGSPRYGENDVCDCIDGFTGPHCELVSVAFYGSGYAFYEPIAACNNTKISLEITPQIDQGLIMYLGPLNFNPLLAISDFLALELDNGYPVLTVDYGSGAIRIRHQHIKMVADRTYQLDIILQRTSIEMTVDNCRLSTCQTLGAPIGPNEFLNVNAPLQLGGTPVDLEQLGRQLNWTHVPNQKGFFGCIRNLTINEQTYNLGMPSVFRNIDSGCQQSVAVAFSFGIDRNFIIAIIVCLALLLIILLAVVVQKKQKNGWHEKDIDDIRETIINYEDEGGGERDTDYDLNVLRTQPFYEEKLYKDPHALQGNMRDPNDIPDIADFLGDKKENCDRDVGATTVDDVRHYAYEGDGNSDGSLSSLASCTDDGDLNFDYLSNFGPRFRKLADMYGEEPSDTDSNVDDDQGWRI
**Q.** For B1, which “stoichiometry N” value is on record?
**A.** ~4
